Measured values: patent US20020045591A1, “Methods and therapeutic compositions for treating cancer” (priority 1998, published 2002)

Assays:
β-catenin [1] = biological target: T1, β-catenin (Cricetulus griseus, UniProt G3H996); assay: Co-immunoprecipitation of cadherin derivatives with β-catenin in CHO cells; format: binding; conditions: stably transfected CHO cells, FIG. 2B
T1 construct: resulting from the stabilization of the endogenous β-catenin by the transfected cadherin derivatives; endogenous in cells; host or cells: CHO cells, stably or transiently transfected with cadherin derivatives only
T1 sequence (G3H996 1-781): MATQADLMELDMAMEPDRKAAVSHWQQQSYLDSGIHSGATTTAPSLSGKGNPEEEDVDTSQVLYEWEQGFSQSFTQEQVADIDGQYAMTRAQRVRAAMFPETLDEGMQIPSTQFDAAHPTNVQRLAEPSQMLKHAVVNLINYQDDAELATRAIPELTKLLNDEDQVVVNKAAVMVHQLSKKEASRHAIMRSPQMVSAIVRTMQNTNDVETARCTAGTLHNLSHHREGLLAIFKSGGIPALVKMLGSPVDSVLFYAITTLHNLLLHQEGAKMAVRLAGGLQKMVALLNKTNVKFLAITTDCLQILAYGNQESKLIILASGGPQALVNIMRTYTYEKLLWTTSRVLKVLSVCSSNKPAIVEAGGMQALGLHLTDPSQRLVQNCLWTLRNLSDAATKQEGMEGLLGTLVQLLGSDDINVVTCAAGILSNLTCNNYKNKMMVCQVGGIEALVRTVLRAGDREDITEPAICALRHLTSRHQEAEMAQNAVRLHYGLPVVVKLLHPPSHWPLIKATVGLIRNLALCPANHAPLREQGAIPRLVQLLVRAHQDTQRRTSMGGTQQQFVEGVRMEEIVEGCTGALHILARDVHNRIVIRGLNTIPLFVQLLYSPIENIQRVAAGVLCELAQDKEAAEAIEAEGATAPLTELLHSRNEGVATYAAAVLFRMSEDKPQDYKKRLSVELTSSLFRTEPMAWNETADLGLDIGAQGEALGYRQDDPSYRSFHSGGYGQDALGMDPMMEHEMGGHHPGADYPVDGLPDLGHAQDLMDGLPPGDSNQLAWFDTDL
Text: Immunoblotting and immunoprecipitation: The following antibodies were used: polyclonal pan-cadherin or monoclonal anti cadherin (CH-19) and polyclonal anti β-catenin antibodies were from Sigma (Holon, Israel). Monoclonal anti β-catenin, 5H10 (from M. Wheelock), anti IL2Rα (from UBI), anti flag (M2, from IBI), anti HA (clone 12CA5, from Boehringer Mannheim, Germany), anti GFP (polyclonal, from Clontech, Palo Alto, Calif.), anti LEF-1 (polyclonal, kindly provided by Dr. R. Grosschedl). Secondary antibodies for Western blotting were goat anti rabbit or anti mouse conjugated to HRP (Amersham, Buckinghampshire, UK), and for immunofluorescence analysis the secondary antibodies were FITC-goat anti mouse (Cappel, USA) or rhodamine-anti rabbit antibodies (from Jackson Immuno-Research, West Grove, Pa.). Cells were harvested in Laemmli's sample buffer and equal amounts of total cell protein from the different clones, or from transient transfections, were separated by SDS-PAGE, electrotransferred to nitrocellulose and incubated with the different antibodies. For immunoprecipitation, cells were harvested in IP buffer (20 mM Tris pH 8.0, 1% Triton X-100, 140 mM NaCl, 10% glycerol, 1 mM EGTA, 1.5 mM MgCl2, 1 mM DTT, 1 mM sodium vanadate, and 50 μg/ml PMSF). […]

SW480 cells = assay: Immunofluorescence localization in SW480 cells (Example 1); format: cell-based, human; conditions: transfected SW480 cells, FIG. 6B
Text: (§1) Immunofluorescence microscopy: Cells cultured on glass coverslips were fixed with 3% paraformaldehyde in phosphate-buffered saline (PBS) and permeabilized with 0.5% Triton X-100. CHO cells were immunofluorescently labeled as described (Levenberg S. et al. (1998) Long-range and selective autoregulation of cell-cell and cell-matrix adhesions by cadherin or integrin ligands. J. Cell Sci. 111:347-357). Nuclei were visualized using DAPI and the fluorescence was examined using a Zeiss Axiophot microscope and a x100/1.3 Planapochromat objective.

CHO cells = assay: Immunofluorescence localization in CHO cells; format: cell-based; conditions: stably transfected CHO cells, FIG. 4
Text: as §1

β-catenin [2] = biological target: T1, β-catenin; assay: β-catenin level in CHO cells by Western blot; format: cell-based; conditions: stably transfected CHO cells, FIG. 2A
Protocol: Cell culture and transfections: CHO and SW480 human colon carcinoma cells were cultured in Dulbecco's modified Eagle's medium containing 10% fetal calf serum in an 8% CO2 incubator at 37° C. Transfections were performed using Lipofectamine (Gibco, BRL, USA) according to the manufacturer's instructions. Stably transfected CHO clones were generated by co-transfection with a plasmid encoding the puromycin resistance gene. Two days after transfection, cells were replated in the presence of 10 μg/ml puromycin (Sigma, Holon, Israel). Stable clones were isolated 2 weeks later and tested for the expression of the transgene by Western blot analysis.
Immunoblotting and immunoprecipitation: The following antibodies were used: polyclonal pan-cadherin or monoclonal anti cadherin (CH-19) and polyclonal anti β-catenin antibodies were from Sigma (Holon, Israel). Monoclonal anti β-catenin, 5H10 (from M. Wheelock), anti IL2Rα (from UBI), anti flag (M2, from IBI), anti HA (clone 12CA5, from Boehringer Mannheim, Germany), anti GFP (polyclonal, from Clontech, Palo Alto, Calif.), anti LEF-1 (polyclonal, kindly provided by Dr. R. Grosschedl). […]

interaction with β-catenin by co-immunoprecipitation (β-catenin [1]): direct interaction | effect on β-catenin levels (β-catenin [2]): increase in β-catenin levels
B1: N-cadherin tail: Cytoplasmic domain of chicken N-cadherin tagged with a Flag epitope (protein)
chain: MKRRDKERQAKQLLIDPEDDVRDNILKYDEEGGGEEDQDYDLSQLQQPDTVEPDAIKPVGIRRLDERPIHAEPQYPVRSAAPHPGDIGDFINEGLKAADNDPTAPPYDSLLVFDYEGSGSTAGSLSSLNSSSSGGEQDYDYLNDWGPRFKKLADMYGGGDD
modifications: left off: small tags and cut ends
subcellular localization of β-catenin (SW480 cells): colocalized with β-catenin in the nucleus | subcellular localization of cadherin derivative and β-catenin (CHO cells): mainly localized in the nucleus
